The source of these data is the domain aggregation screens of Martell et al. (2025).

This series can be described thus: soluble fraction after stress (log2 fold change); higher = more stays soluble; pooled small domains, quantitative proteomics. Conditions: stress: 50 degC. The procedure, abridged:
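Pooled custom libraries of small protein domains were each held under stress at 50°C. The read-out, high-throughput quantitative proteomics, tracked how much of each protein stayed soluble. This is reported as a base-two log fold change used to indicate aggregation propensity. Higher values mean more protein remains in solution.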
As to “HMKELTARQIEILDFITNYEWRHGYWPSIRNIQVQFSYKSTNAVMGHLRALERKGAIERIPGQARTFRIH”, the “soluble fraction (log2)” value is -2.97. On to “HMHAQDTLMTRAGETRTVKILEIGLEEIKYRIWGLDDSPVIVIDKIDVKQIVFSNGEKMTIVQ”, for which the “soluble fraction (log2)” value was -1.44. Then “HMVDEAQSLERNVLLTVLSRIGRDSRVVLTHDIAQRDNLRVGRHDGVVAVVDRLKGHPLFAHVTL”, with 0.012. Then “HMDISEIEKRLLDFLEMPRSRKEIAEHLGIRTISYAIQTYITPLIDKKLVKMTIPESPRSHSQQYVRIN”, with -0.92; and “HMGKSDEIFIQKSALYEELGQPDRALEMIYSALKSDSLNIDVLHRLVTLLINQNKNEDAILYNQKIID”, with -0.193. With “HMRGQGRILAMLKIQPEIATKDLAYLLGIRQQSLNELLKKLEKNSYVERRPSEKDRRVMVVHLTEKGKE” the figure was -0.715; with “HMDGDFGMNLDWQPSEHFPTLARQAGIPADHITAEAIAEFRSYWIGQGKAMTQYQWDHKLLTNLKATKTR”, -1.14; with “HMTIDETKKQQVKDGLKDIPGVTVEFVGDKAVLKGAVTDANRVKIMQIVMAAKVLSDASGLTSK”, -0.11. With “HMLPPLGDQELELLRFITESAPITVREAAESYGKDRGLARTTVLTMMERLRAKGYLTRSESGAANEYSP”, the “soluble fraction (log2)” value was -0.155. With “HMVNGTPADPYDVLGVESSASPEELRAAWQTLVRQNHPDQLMARGVPLEAVKLAEARLVAINQAWDDLTK” the figure was 0.0363. For “HMKTGTVQDFIAKYGMSSKSPSSWFNSLTQIQKAEAKALKAQSGLTWNEWYEKNIYNGDGSNL”, the “soluble fraction (log2)” value was 0.0263. Then “HMTMPDFGYMRVSYAEARRQLQAIGISVSTIEKVEDPSHTSATGDMVISQYPAAGSKIEGTVTLYVSVAS”, with -0.779. Then “HMQDNLKKYMDKLSQRDAELIVYKYLWNMSEKEISEMFHIKQEQVHVYVGRAKKRLFKIIKKEME”, with -0.025. With “HMTDLEDDEKKVYRLIVESGEGIDFDTLSERSGFSATELPSILLFLMMKEMIDELPGKIYRYSE” the figure was 0.0814. On to “HMTETFVLNLRQPIAAAPVLPGYRVARTDEQTLEVEVSKDQNLNEIFTALSALGVEVLSMRNK”, for which the “soluble fraction (log2)” value is -0.12. With “HMAAESWTEKSRALAAAGLVVMGRDAQTKIEELTNLAPLIEAANASNTRLLTSQSIDELLSIVPTEENL” the figure was 0.0724. With “HMDYYNILGVNKAATAQDIKRAYRKLAKEHHPDHGGDATRLQQVNEAYDTLKDPQRREQYDS”, the “soluble fraction (log2)” value is 0.24. Then “HMKKALTAEQEARVRELYFRGINYYSANRYQDAIAEWRKVLAIDPNHEKAKNNIRQTLILLK”, with -0.257; and “HMAKIPASTVVEIDGAPVVVAVRVNARARSYRLSIPHSGGPLLTLPPHGKWAEAEAFLLRHHNWLAARLHR”, with -2.47; and “HMQPGDRVDALIVGVSGEHVFLDVGGKSEGVMAAAELRNEAGELSAAEGDRVQVYLLSNRNGELIFTA”, with 0.00616.

As to “HMGEPLTVVAAAGGDRLDRWLAGQLAGRSRAEIQRWIEAGQVTLAGRSLKASYRLSAGDAIDVAIPPPE”, the “soluble fraction (log2)” value is -0.129. With “HMPMINLYQRLNLPPTASRAEIEAALAQYRSELSTAEIRGVQEWLLVNEVRHRYDAKLRQEQPSFFI” the figure was -0.471. With “HMSDNYYSILGIETDATTDMIKRAYRRLSLELHPDRTKDNPILTEKYKKVNEAYGVLNDNDRKHIYDLQNI” the figure was -0.216; with “HMVTVSAVNITPKGHTTVGFTDRSVNPPSNYYLRVGESADGWTVKDADFDDEIATLEKDGVAITLKL”, -0.0772; with “HMGLGDLEVVDSIGKIRRDGQQMILAFGRHKGRDVQEVYNEDPRYINWLLSPKGIEDENGRGKVRDYLGIN”, 0.163. With “HMYMKLSVKDAALFLSVSPETVYRWVKQEEIPYHTVNDQLRFNRAELLEWATARSLEVSPDLFVP” the figure was -3.04; with “HMSGTGSYVALLRDPQGNVGKVVVKGSKGEQVLSQPQQAARLDGATPSYEVTGRQIAEDFGRALAV”, 0.127. For “HMEKIDYLSIGHRLRAYRIASSLKAEDVAESLGISRAAVYRLEKGEIVKIETLDNLARLLNTSLSSLLG”, the “soluble fraction (log2)” value was -2.94.

“HMTFTQFAESHGVIIKSLKASDKIQRGPTVAHPKSDNGAWLWDGNRGGVMAWDGDGQWYWFK”: the “soluble fraction (log2)” value is -1.95. With “HMSEQYEQIQLALKTLTQDEQDIVRLVVVEGASLRTAGKNLGVSAMTIQRRLKRALARLRDLLAS” the figure was -0.948. With “HMASRTLSYSEFMSRVDSGDVTSVTLDGERIIMRTSNNQEFLSIKPEGEDISERLLAKNIEVRAEAQQ” the figure was -0.284; with “HMIAKIEGQISYVGNRFLIVDVSGVGYKLFVTNEAISLSKVEESIKLWVHTAVRENSIDLYG”, -0.7.

Turning to “HMVADLSGVGDKDIIVDQFIYHEVLPKETIYSIVKSFNVTSEDLNKNNPFLRANGLRIGQVIRIPLKI”, the “soluble fraction (log2)” value was -1.08. Consider “HMGVIGADIRALRVSRGWTLSDLAEALDRSVGWLSQVERDVSEPALADIRRIAGIFDLPVSFFFSD”, for which the “soluble fraction (log2)” value was -2.86. With “HMSSGNLESLLNKLHNEDYFVRLDAVKALGALGDPGAIDYLIEMLSENGIMRGWVANSLAALGEAQWKKII” the figure was -1.94; with “HMGPNYYDILEIPTDASPSEITQAFRKKALEWHPDKNPNNLEEATSRFIEIVEAYRVLSSKDSKLQYDTG”, 0.0242; with “HMLLNSLIDTLAAEKATVVPGTEVFKLYDTYGFPWELTEEIASERGFTIDHEGFEAAMKEQRERAREARV”, -0.0257. With “HMSKSIGEALKEERRSLGLTQEQFIKGIISESFYSKVERGKNEIVAVDLLKILAANNISEEEFLSKLN” the figure was -0.58; with “HMNIYIEFGRRLAFIRQNSKLSQSQIAQKLNIAQSTYAGYEKGVRKIPLEIIVQLSKILNISPTILILG”, -3.91; with “HMDSVTMYATTGVNVRSGPSTSYSIVGGLDRGDKVTRIGTSGNWTKVVWGNGSAYVFSKYLQTGY”, -1.81. Then “HMPDLSGEEQQIVDILAQRGNLQINTLVVETDIPVHKMNAILFELEMKGVVRVLAGGMYQLL”, with -0.263; and “HMGLKQADFEELASRIFTVLEEKSMTPAEIVRKLNLEPDRISIVIQYLLDEGKLNIKDGFINNSA”, with -0.107. Consider “HMIQQFTYAFAKDKGVVVLPGRDVLTLGMRAGADPLVLLEARRALGSSFELEPLDRDTYERTLADVFTADA”, for which the “soluble fraction (log2)” value is -0.695. As for “HMVVEDDTVLQAVKQAIEENPEAVSDYFEGKSKALNFLVGQVMRITRGKADPAKTNQMVVEELKNR”, the “soluble fraction (log2)” value is 0.111.

With “HMEGNAFASTGDPEADILDITAVHPMRRDAVEELLARSGAEWSLVEGMLRDGKITMAPWEGEEFFIRS”, the “soluble fraction (log2)” value worked out at 0.0467.

On to “HMLHIKKGDTVIVNAGESKGQQGKVLEVLVGKERAIVEGVNMVSKHTKPNAKNPQGGIVKKEAPIHISNLQ”, for which the “soluble fraction (log2)” value is 0.179.

Take “HMQITDSGAIETIIDKIIADNPGQVTQYLSGKDKVFGFFVGQTMKASQGKANPAEVNKILQEKLK”: the “soluble fraction (log2)” value worked out at 0.00553. Then “HMIDTLEYIISEESKGLRADQAITMVNGEFSRSLIQKWIKKGSILVNGKKIKPRDILNLNDKVTINPEEN”, with -0.0699; and “HMENNNIAFSKFLEEVDSGRVVQVEIQGNNISGTLSDGSKFKTYSPNYPDLVSKLSEKNVSIIASPV”, with 0.115.

For “HMDAPHPSVVQVYFESRDRSWTYYNDRFDLHEGDLVYVEGKLEGVRGRVVEVSYNFRIKLADYKRVIAVA”, the “soluble fraction (log2)” value is -3.66.
